# From patent publication US20140287989A1 (CENTRE NATIONAL DE LA RECHERCHE SCIENTIFIQUE, published 2014)
# Read-outs that look alike come from different tables or passages of the source. Square brackets hold non-standard residues; d marks the D form. Cha = N[C@@H](CC1CCCCC1)C(=O)O
# Columns and labels:
# [1] = molecular target: T1, E. coli β clamp (β subunit of DNA polymerase III, dnaN gene product) (E. coli, UniProt P0A988 1-366); assay: SPR competition: peptide with β ring injected on immobilized P1
# T1 construct: Homodimeric ring; N-tagged protein expressed in BL21 E. coli and purified on Ni-NTA and MonoQ; also called β ring; β protein; not shown: N-terminal tag from the pET15b plasmid
# T1 sequence (P0A988 whole entry): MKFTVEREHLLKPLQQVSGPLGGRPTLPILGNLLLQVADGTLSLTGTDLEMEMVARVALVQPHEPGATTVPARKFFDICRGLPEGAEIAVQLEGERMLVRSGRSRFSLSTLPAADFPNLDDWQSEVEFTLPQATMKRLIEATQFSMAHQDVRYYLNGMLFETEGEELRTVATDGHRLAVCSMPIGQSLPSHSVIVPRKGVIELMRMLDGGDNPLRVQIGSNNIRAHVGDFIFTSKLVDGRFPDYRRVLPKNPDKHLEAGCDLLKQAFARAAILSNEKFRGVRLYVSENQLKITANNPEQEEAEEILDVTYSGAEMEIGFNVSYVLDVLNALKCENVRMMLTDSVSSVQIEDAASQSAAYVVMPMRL
# [2] = molecular target: T1, E. coli β clamp (β subunit of DNA …); assay: SPR competition; ΔG = -RT ln Ki
# [3] = molecular target: T1, E. coli β clamp (β subunit of DNA …); assay: SPR competition: peptide with β ring injected on immobilized P1; remark: listed apart in the source
# [4] = molecular target: T1, E. coli β clamp (β subunit of DNA …); assay: as above; remark: listed apart in the source
binder,measurement,setting,value
"Ac-Q[Cha]DLF-OH (SMILES CC(=O)N[C@@H](CCC(N)=O)C(=O)N[C@@H](CC1CCCCC1)C(=O)N[C@@H](CC(=O)O)C(=O)N[C@@H](CC(C)C)C(=O)N[C@@H](Cc1ccccc1)C(=O)O, X stands for the non-natural residue; also called Ac Q ChaDLF; AcQChaDLF) [P7, Ac-Gln-Cha-Asp-Leu-Phe-OH]",IC50,[1],0.17 µM
same,ΔG,[2],-39.4 kJ/mol
same,IC50,[3],0.17 µM
same,IC50,[4],0.17 µM
